From paper PMC7014971

Target: full-length human BRAF, wild type (insect cell-produced) (human) (UniProt P15056)
Assay: SEC-MALS

Chain of UniProt P15056 (P15056 whole entry): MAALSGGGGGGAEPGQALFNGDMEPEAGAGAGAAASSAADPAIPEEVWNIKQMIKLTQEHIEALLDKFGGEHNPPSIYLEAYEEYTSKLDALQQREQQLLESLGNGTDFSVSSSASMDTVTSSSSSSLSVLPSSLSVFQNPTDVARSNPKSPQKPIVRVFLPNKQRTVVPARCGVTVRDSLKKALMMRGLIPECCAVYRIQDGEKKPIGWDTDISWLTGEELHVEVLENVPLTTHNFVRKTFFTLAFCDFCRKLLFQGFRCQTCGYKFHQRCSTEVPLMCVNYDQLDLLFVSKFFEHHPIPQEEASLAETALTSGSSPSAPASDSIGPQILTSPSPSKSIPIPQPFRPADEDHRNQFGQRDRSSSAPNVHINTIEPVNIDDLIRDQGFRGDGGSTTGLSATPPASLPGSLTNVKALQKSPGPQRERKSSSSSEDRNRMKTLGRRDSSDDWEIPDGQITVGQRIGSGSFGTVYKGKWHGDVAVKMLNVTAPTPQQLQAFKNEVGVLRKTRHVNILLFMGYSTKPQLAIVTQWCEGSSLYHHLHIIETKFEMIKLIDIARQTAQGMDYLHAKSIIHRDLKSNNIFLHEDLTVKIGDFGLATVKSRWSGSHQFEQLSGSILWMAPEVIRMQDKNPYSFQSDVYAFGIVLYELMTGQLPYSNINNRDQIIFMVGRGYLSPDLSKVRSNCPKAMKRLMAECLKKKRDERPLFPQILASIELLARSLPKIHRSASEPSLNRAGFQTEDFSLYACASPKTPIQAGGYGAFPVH

stoichiometry N (14-3-3 dimer per BRAF): 1
Substance: insect cell-derived 14-3-3ε,ζ dimer (complex)
